According to a protein production outcome set (Wang et al. 2014):

Test: label from the status in PepcDB records

Sequence | protein production
MVRLTPFYKKLSILFVEDEREVQEAALNVLERYIDHILVASDGEEALAIFKEKRPDIVITDIKMPVMDGLALTKEIKELGDTPVIVISAFDNEEFVSEAARLGVETYLLKPIDIQLLLASINRCIELLIRREEARQNRSLLREYKRIVDETAMICKIDLDKTITYANEAFCQISGYSKEELTGKIYRHMVSPRQDLSRLDGGLWVNVLRGKSWKGMIELLNKKGEPYFIQASMFPLFDADGKITELIALQFDITEHIKTKQILEKQNQKLEHIAHTDTLTGVWNRYKFNKILRQEIKCAKSSNHPFSLMLLDVDRFKTINDTHGHQFGDRVLKAITSTLKRQLKHKEAMIARWGGEEFIVLAQGYRLAQALELAERLRAAIEGMEFENIPITSSFGVTEFSPEDELDTLVRRADLALYTAKESGRNRIISY | failed
MLRRALEEAIAQALKEMGVPVRLKVARAPKDKPGDYGVPLFALAKELRKPPQAIAQELKDRLPLPEFVEEAVPVGGYLNFRLRTEALLREALRPKAPFPRRPGVVLVEHTSVNPNKELHVGHLRNIALGDAIARILAYAGREVLVLNYIDDTGRQAAETLFALRHYGLTWDGKEKYDHFAGRAYVRLHQDPEYERLQPAIEEVLHALERGELREEVNRILLAQMATMHALNARYDLLVWESDIVRAGLLQKALALLEQSPHVFRPREGKYAGALVMDASPVIPGLEDPFFVLLRSNGTATYYAKDIAFQFWKMGILEGLRFRPYENPYYPGLRTSAPEGEAYTPKAEETINVVDVRQSHPQALVRAALALAGYPALAEKAHHLAYETVLLEGRQMSGRKGLAVSVDEVLEEATRRARAIVEEKNPDHPDKEEAARMVALGAIRFSMVKTEPKKQIDFRYQEALSFEGDTGPYVQYAHARAHSILRKAGEWGAPDLSQATPYERALALDLLDFEEAVLEAAEERTPHVLAQYLLDLAASWNAYYNARENGQPATPVLTAPEGLRELRLSLVQSLQRTLATGLDLLGIPAPEVM | not failed
MSANDKLTILWTTDNKDTVFNMLAMYALNSKNRGWWKHINIILWGASVKLVANDTQVQTEILEMLQSGITIEACQDCCENFGVASIITNLGITVRYMGIPLTEYLKNGEKILSI | not failed
MKDLTQGSIPKHLISMALPMMIGMLIQTLYFIVDLYFVGKLGSAALAGLSLAGNAMFLIFALTQILNVSTAALISHAVGAKDQQDANLTFNQSMMLSTVVGIIVCIIGYFGAQDYLNLISQDSETVMMGLTYLHWFIPCMALQFIMVSISSALRGTGIVKPTMVIQTLSILLNIILSPILITGWGSGYAMGIAGAGFASSLSVIFAVVLLCYYFITTDKYVSVDFSLWHINVPRIKKLLAIGLPAGGEFFLMFVYMGAIYWLIKPFGAEAQAAFGLGSRVMQALFLPAMAIAFAAPAIAGQNFGAQNYQRVRDTFRWTAIMTCSLMAIILLICLSQAEWMLTHFSDDREVILISVAFLQMICWNFVPAGLVFTCSGMFQALGNTMPALLSTATRLITFILPALWLSKQSDFQIEQLWYVSVATVCLQSSVSFYFLKREFKKRLPNDNLSNECSDELNKNKLIT | failed
MPHFTKRPAQPQAALAEAAGLRWLAEASSAVAQVVSADAEQITTVGVETQLPTPDAAFKAGEELARIHLAGAPAFGCPPAGWAGLNYIGTQGQACLSTPTWGVFYSQQRVLPFARRARRRNHLTEHALWVVEAACDLISELPDDVPPARIHGDLWFGNLLFGTDGPVFIDPAAHGGHPETDLAMLDVFGAPYLDEIREGYLSINPLPDGWRERTPMHQLHPLAVHAASHGPSYGVELLHAAKATLKLLDLEHHHHHH | failed
TDVSSWIVYPSGKVYVAAVRLERVVLTCELCRPWAEVRWTKDGEEVVESPALLLQKEDTVRRLVLPAVQLEDSGEYLCEIDDESASFTVTVTEPPVRIIY | not failed
MTLKPTQQRLLLMLGWLHLQCGQPRRAQVLLEALLSVAPERRDGRRALLLALLQQGLGEPAVRLCRQLQEDGEEEPGLWRCLSRAEQLAGRLDAARAAHARALELEARELEHHHHHH | not failed
MDKNETRATIIRIGTDLISRQGFNATGIDAVLKEAGVPKGSFYYYFRSKEEFGLAVIDHFAERYDQRLDTFLNDEEVTPLNRIRNYLESALARLEQNQCSKGCLIGNLGQELADQHERFRGRLDEIFRSWKDRFAACLREAQRGGELAPELDAGVAAGFILSGLEGAILRTKVMKSPQPLRDFIEILFASVLRRQA | not failed
